The values below come from publication PMC6695210, “Bipartite interface of the measles virus phosphoprotein X domain with the large polymerase protein regulates viral polymerase dynamics” (PLoS Pathogens, 2019).

What all share (experiment): native gel or EMSA; native PAGE (3–12% Bis-Tris gradient gels, G-250 additive) of cleared lysates of transfected cells, immunoblot; trimeric and dimeric GCN4 variants as mobility reference
In general terms: Mobility shift assays separate free from complexed probe on a gel.

Data set [1] addresses MeV P with residues 303–377 replaced by the tetrameric mutant of the yeast GCN4 coiled-coil (measles virus (strain IC-B) | yeast) (UniProt Q9WMB4).
Data set [2] addresses MeV P-GCN4_(303-360), P with OD residues 303–360 replaced by the tetrameric mutant of the yeast GCN4 coiled-coil (measles virus (strain IC-B) | yeast) (UniProt Q9WMB4).
Data set [3] concerns the molecule itself.

Take “MeV P with residues 303–377 replaced by the tetrameric mutant of the yeast GCN4 coiled-coil (from UniProt Q9WMB4 1-302; Q9WMB4 378-507)”: the stoichiometry N in data set [1] worked out at 4.
On to “MeV P-GCN4_(303-360), P with OD residues 303–360 replaced by the tetrameric mutant of the yeast GCN4 coiled-coil (from UniProt Q9WMB4 1-302; Q9WMB4 361-507)”, for which the stoichiometry N in data set [2] was determined as 4.

B1: MeV P (361–364)Ala, P with residues 361–364 substituted with alanines (natural protein, measles virus (strain IC-B), UniProt Q9WMB4 1-507, looked up)
chain: MAEEQARHVKNGLECIRALKAEPIGSLAVEEAMAAWSEISDNPGQDRATCKEEEAGSSGLSKPCLSAIGSTEGGAPRIRGQGSGESDDDAETLGIPSRNLQASSTGLQCYHVYDHSGEAVKGIQDADSIMVQSGLDGDSTLSGGDDESENSDVDIGEPDTEGYAITDRGSAPISMGFRASDVETAEGGEIHELLKLQSRGNNFPKLGKTLNVPPPPNPSRASTSETPIKKGTDARLASFGTEIASLLTGGATQCARKSPSEPSGPGAPAGNVPECVSNAALIQEWTPESGTTISPRSQNNEEGGDYYDDELFSDVQDIKTALAKIHEDNQKIISKLESLLLLKGEVESIKKQINRQNISIAAAAGHLSSIMIAIPGLGKDPNDPTADVELNPDLKPIIGRDSGRALAEVLKKPVASRQLQGMTNGRTSSRGQLLKEFQLKPIGKKVSSAVGFVPDTGPASRSVIRSIIKSSRLEEDRKRYLMTLLDDIKGANDLAKFHQMLMKIIMK
notes: MeV strain IC-B phosphoprotein P; of the old residues only S361 is printed in the text; also called M1; source: transiently transfected cells, in lysate; not shown: HA, C-terminal, kept
In the case of B1, in data set [3], the “stoichiometry N” value turned out to be 4.

B2: MeV phosphoprotein (P), wild type (natural protein)
chain: MAEEQARHVKNGLECIRALKAEPIGSLAVEEAMAAWSEISDNPGQDRATCKEEEAGSSGLSKPCLSAIGSTEGGAPRIRGQGSGESDDDAETLGIPSRNLQASSTGLQCYHVYDHSGEAVKGIQDADSIMVQSGLDGDSTLSGGDDESENSDVDIGEPDTEGYAITDRGSAPISMGFRASDVETAEGGEIHELLKLQSRGNNFPKLGKTLNVPPPPNPSRASTSETPIKKGTDARLASFGTEIASLLTGGATQCARKSPSEPSGPGAPAGNVPECVSNAALIQEWTPESGTTISPRSQNNEEGGDYYDDELFSDVQDIKTALAKIHEDNQKIISKLESLLLLKGEVESIKKQINRQNISISTLEGHLSSIMIAIPGLGKDPNDPTADVELNPDLKPIIGRDSGRALAEVLKKPVASRQLQGMTNGRTSSRGQLLKEFQLKPIGKKVSSAVGFVPDTGPASRSVIRSIIKSSRLEEDRKRYLMTLLDDIKGANDLAKFHQMLMKIIMK
notes: measles virus (MeV) strain IC-B phosphoprotein P, codon-optimized synthetic ORF; ends at residue 507 by the printed limits of P-XD (459–507); also called wild type P; wt P; not shown: HA, C-terminal, kept
Turning to B2, the “stoichiometry N” value in data set [3] was found to be 4.

The stoichiometry N is a count of units in the complex or per binding partner.
